Laboratory results taken from paper PMC12102759.

B1: NCOA2 peptide 1075-1090 (Nuclear receptor coactivator 2), 16-mer library wild type / NSP3 UBl1 (ORF1ab Nsp3a Ub1, residues 819-925) (parent)
chain 1: DEGALLDQLYLALRNF
chain 2: APTKVTFGDDTVIEVQGYKSVNITFELDERIDKVLNEKCSAYTVELGTEVNEFACVVADAVIKTLQPVSELLTPLGIDLDEWSMATYYLFDESGEFKLASHMYCSFY
B2: NEK9 peptide 738-753 (Serine/threonine-protein kinase Nek9), 16-mer library wild type / NSP9 (ORF1ab Nsp9, residues 4141-4253) (parent)
chain 1: SGLSIGTVFQSSSPGG
chain 2: NNELSPVALRQMSCAAGTTQTACTDDNALAYYNTTKGGRFVLALLSDLQDLKWARFPKSDGTGTIYTELEPPCRFVTDTPKGPKVKYLYFIKGLNNLNRGMVLGSLAATVRLQ
B3: NOTCH4 peptide 1606-1621 (Neurogenic locus notch homolog protein 4), 16-mer library wild type / NSP9 (ORF1ab Nsp9, residues 4141-4253) (parent)
chain 1: QGAWLGAPEPWEPLLD
chain 2: B2 chain 2
B4: NOTCH4 peptide 1604-1619 (Neurogenic locus notch homolog protein 4), 16-mer library wild type / NSP9 (ORF1ab Nsp9, residues 4141-4253) (parent)
chain 1: TFQGAWLGAPEPWEPL
chain 2: B2 chain 2

Variants of: B1
Conditions: with NSP3 UBl1 (ORF1ab Nsp3a Ub1, residues 819-925); bait immobilised on MaxiSorp plates (10 µg), library pre-cleared on GST, 2 h binding at 4 °C, five washes; one round per day, days 1-4; value from days 2 and 3; keep out of graded; scale: average fractional NGS count over selection days 2 and 3

Variant | screen value
chain 1 G3R | 2.99e-05
chain 1 G3N | 7.33e-06
chain 1 E2N | 0
chain 1 A4Y | 0.00107
chain 1 A4L | 7.15e-06
chain 1 N15I | 2.73e-05
chain 1 N15A | 1.68e-05
chain 1 N15H | 5.47e-06
chain 1 N15F | 0.113
chain 1 N15V | 0.00016
chain 1 N15L | 0.000158
chain 1 L6E | 0
chain 1 L6G | 0
chain 1 L6D | 0
chain 1 A12W | 0
chain 1 R14N | 2.08e-05

Variant | screen value
chain 1 R14D | 0.000475
chain 1 R14F | 2.17e-05
chain 1 R14Y | 5.46e-06
chain 1 R14K | 0
chain 1 L11M | 0
chain 1 L11F | 0
chain 1 L11S | 0.000175
chain 1 L11Q | 0
chain 1 L9K | 0
chain 1 L9T | 0
chain 1 L9V | 1.9e-05
chain 1 L9I | 7.34e-06
chain 1 L9H | 0
chain 1 Q8G | 8.24e-06
chain 1 Q8P | 1.57e-05

Variants of: B2
Conditions: with NSP9 (ORF1ab Nsp9, residues 4141-4253); bait immobilised on MaxiSorp plates (10 µg), library pre-cleared on GST, 2 h binding at 4 °C, five washes; one round per day, days 1-4; value from days 2 and 3; keep out of graded; scale: average fractional NGS count over selection days 2 and 3

Variant | screen value
chain 1 T7P | 0.000499
chain 1 T7E | 0.000776
chain 1 T7D | 0
chain 1 T7Q | 0
chain 1 T7S | 0
chain 1 V8Q | 0.000101
chain 1 V8P | 0
chain 1 V8H | 0.000119
chain 1 V8E | 2.09e-05
chain 1 V8A | 3.17e-05
chain 1 V8K | 0
chain 1 V8D | 0.000118
chain 1 V8G | 0
chain 1 P14E | 2.37e-05
chain 1 P14T | 0
chain 1 P14R | 0
chain 1 S12I | 0
chain 1 S12E | 0
chain 1 S12D | 0
chain 1 S4W | 0
chain 1 S4K | 0
chain 1 S4Y | 0
chain 1 S4D | 0
chain 1 S4P | 0
chain 1 S11N | 0
chain 1 S11A | 0
chain 1 S11D | 2.69e-05

Variant | screen value
chain 1 S11T | 0
chain 1 S1M | 1.76e-05
chain 1 S1E | 2.09e-05
chain 1 S1H | 0
chain 1 S1L | 0
chain 1 S1N | 0.000364
chain 1 S1D | 0.000541
chain 1 S1Y | 0
chain 1 S13G | 0
chain 1 S13N | 2.85e-05
chain 1 S13V | 0
chain 1 S13Q | 0
chain 1 L3W | 0
chain 1 L3V | 0.000196
chain 1 G2I | 0
chain 1 G2L | 0
chain 1 G2V | 0
chain 1 G15V | 0.000116
chain 1 G15Q | 4.92e-05
chain 1 G15S | 0
chain 1 G15A | 0
chain 1 G15W | 0
chain 1 G15D | 0
chain 1 G15E | 0
chain 1 Q10E | 0.000217
chain 1 Q10I | 0
chain 1 I5E | 0

Variants of: B3
Conditions: with NSP9 (ORF1ab Nsp9, residues 4141-4253); bait immobilised on MaxiSorp plates (10 µg), library pre-cleared on GST, 2 h binding at 4 °C, five washes; one round per day, days 1-4; value from days 2 and 3; keep out of graded; scale: average fractional NGS count over selection days 2 and 3

Variant | screen value
chain 1 E9R | 5.73e-05
chain 1 E9H | 4.98e-05
chain 1 L5V | 3.16e-05
chain 1 L5Y | 0
chain 1 L5K | 0
chain 1 L5H | 0
chain 1 L5P | 3.64e-05
chain 1 L5M | 0
chain 1 L15W | 5.05e-05
chain 1 L15G | 6.9e-05
chain 1 L14D | 2.68e-05
chain 1 L14N | 1.14e-05
chain 1 L14E | 4.45e-05
chain 1 A3E | 2.97e-05
chain 1 A3H | 3.7e-05
chain 1 A3G | 0
chain 1 G2W | 0
chain 1 G2H | 0
chain 1 G2Y | 0
chain 1 G2A | 0
chain 1 G2T | 0
chain 1 G2R | 1.21e-05
chain 1 G2L | 0

Variant | screen value
chain 1 E12R | 8.31e-05
chain 1 P8K | 0
chain 1 Q1S | 7.35e-05
chain 1 Q1V | 3.52e-05
chain 1 Q1G | 5.8e-05
chain 1 G6H | 0
chain 1 G6R | 0
chain 1 G6Q | 0
chain 1 G6N | 0
chain 1 G6W | 0
chain 1 G6Y | 0
chain 1 G6F | 0
chain 1 G6S | 0
chain 1 G6E | 6.33e-05
chain 1 G6L | 0
chain 1 W11K | 3.16e-05
chain 1 W11R | 3.62e-05
chain 1 W4H | 0
chain 1 W4T | 0
chain 1 W4Q | 0
chain 1 W4M | 0
chain 1 W4F | 7.26e-05
chain 1 W4I | 0

Variants of: B4
Conditions: with NSP9 (ORF1ab Nsp9, residues 4141-4253); bait immobilised on MaxiSorp plates (10 µg), library pre-cleared on GST, 2 h binding at 4 °C, five washes; one round per day, days 1-4; value from days 2 and 3; keep out of graded; scale: average fractional NGS count over selection days 2 and 3

Variant | screen value
chain 1 L7D | 0
chain 1 L7M | 0
chain 1 L7I | 0
chain 1 P15Y | 0
chain 1 P15S | 0
chain 1 Q3E | 2.09e-05
chain 1 Q3L | 0
chain 1 Q3V | 0
chain 1 E11D | 0
chain 1 E11H | 0
chain 1 E11S | 0
chain 1 E11Y | 0
chain 1 E11L | 0
chain 1 E11N | 0
chain 1 E14F | 3.92e-05
chain 1 E14L | 7.93e-05
chain 1 E14G | 0
chain 1 E14V | 0.000155

Variant | screen value
chain 1 E14H | 0
chain 1 E14Q | 0
chain 1 P10A | 0
chain 1 P10G | 0
chain 1 P10W | 0.00035
chain 1 P10D | 0
chain 1 P10Q | 0
chain 1 P10I | 0
chain 1 P10E | 4.5e-05
chain 1 P10L | 0
chain 1 A5T | 0
chain 1 A5D | 0
chain 1 A5K | 0
chain 1 A5E | 0
chain 1 A5L | 5.68e-05
chain 1 A5S | 0
chain 1 A5V | 0.000292
chain 1 A5F | 4.11e-05
